Measurements reported in US20230137139A1, “BIOSYNTHESIS OF CANNABINOIDS AND C[…]” (priority 2020, published 2023).
Changes are numbered by the printed parent chain.

B1: t865735 (protein)
chain: MGNTTSIAGRDCLISALGGNSALAVFPNELLWTADVHEYNLNLPVTPAAITYPETAAQIAGVVKCASDYDYKVQARSGGHSFGNYGLGGADGAVVVDMKHFTQFSMDDETYEAVIGPGTTLNDVDIELYNNGKRAMAHGVCPTIKTGGHFTIGGLGPTARQWGLALDHVEEVEVVLANSSIVRASNTQNQDVFFAVKGAAANFGIVTEFKVRTEPAPGLAVQYSYTFNLGSTAEKAQFVKDWQSFISAKNLTRQFYNNMVIFDGDIILEGLFFGSKEQYDALGLEDHFAPKNPGNILVLTDWLGMVGHALEDTILKLVGNTPTWFYAKSLGFRQDTLIPSAGIDEFFEYIANHTAGTPAWFVTLSLEGGAINDVAEDATAYAHRDVLFWVQLFMVNPVGPISDTTYEFTDGLYDVLARAVPESVGHAYLGCPDPRMEDAQQKYWRPNLPRLQELKEELDPKNTFHHPQGVMPA
B2: t865795 (protein)
chain: B1 chain with F262I, P446T
modifications: expressed in S. cerevisiae strain
B3: t878468 (protein)
chain: B1 chain with A57E, P446T
modifications: expressed in S. cerevisiae strain
B4: t878466 (protein)
chain: B1 chain with Q161K, P446T
modifications: expressed in S. cerevisiae strain
B5: t865758 (protein)
chain: B1 chain with P446T, E456A
modifications: expressed in S. cerevisiae strain
B6: t865721 (protein)
chain: B1 chain with Y256F, P446T
B7: t865796 (protein)
chain: B1 chain with P446T, L458W
modifications: expressed in S. cerevisiae strain
B8: t865727 (protein)
chain: B1 chain with H353A, P446T
B9: t865733 (protein)
chain: B1 chain with V398T, P446T
B10: t865731 (protein)
chain: B1 chain with V25A, P446T
B11: t865809 (protein)
chain: B1 chain with N122G, P446T
modifications: expressed in S. cerevisiae strain
B12: t865814 (protein)
chain: B1 chain with D280N, P446T
modifications: expressed in S. cerevisiae strain

What follows are molecules tested on CBCA, THCA, and CBDA production (assay: In vivo TS activity assay, Example 2 protein engineering of A. niger CBCAS, cultures fed olivetolic acid). Conditions: secondary screen, olivetolic acid (Table 8).
Type: cell-based, S. cerevisiae
Procedure, shortened: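 S. cerevisiae expressing A. niger CBCAS mutants (MFalpha2/HDEL-tagged) grown 2 days at 30 °C in YEP+4% dextrose, then 4 days at 20 °C in YEP+4% galactose with 1 mM olivetolic acid, spiked every 24 h with 2% galactose and 1 mM olivetolic acid. 100 mM citrate pH 5.5 added, methanol-extracted; CBCA, THCA, CBDA quantified by LC-MS.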

Molecule	Mean CBCA [µg/L]	Mean CBDA [µg/L]	Mean THCA [µg/L]
B1	27519.94	7436.20	1783.72
B2	24874.10	7028.82	1807.99
B3	26823.18	8556.40	1922.88
B4	23882.09	8030.74	1649.00
B5	26316.76	6998.62	1712.53
B6	21099.41	5260.35	1396.80
B7	19975.57	6427.56	1436.09
B8	16276.39	4297.38	1177.87
B9	18070.99	6320.33	1307.71
B10	16059.53	4006.74	971.80
B11	20413.40	6738.75	1390.36
B12	20192.93	6751.44	1367.48

Same assay, conditions: share of terminal cannabinoid product profile

Molecule	% CBCA [%]	% CBDA [%]	% THCA [%]
B1	74.90	20.24	4.85
B2	73.79	20.85	5.36
B3	71.91	22.94	5.15
B4	71.16	23.93	4.91
B5	75.13	19.98	4.89
B6	76.02	18.95	5.03
B7	71.75	23.09	5.16
B8	74.83	19.76	5.42
B9	70.32	24.59	5.09
B10	76.34	19.05	4.62
B11	71.52	23.61	4.87
B12	71.32	23.85	4.83

These molecules were tested on CBCVA, THCVA, and CBDVA production (assay: In vivo TS activity assay, Example 2 protein engineering of A. niger CBCAS, cultures fed divaric acid). Conditions: S. cerevisiae strains expressing A. niger CBCAS mutants, secondary screen, fed divaric acid.
Type: cell-based, S. cerevisiae
Procedure, shortened: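 S. cerevisiae expressing A. niger CBCAS point mutants (N-terminal MFalpha2, C-terminal HDEL signal peptides) grown 2 days at 30 °C in YEP+4% dextrose, then 4 days at 20 °C in YEP+4% galactose with 1 mM divaric acid plus daily 2% galactose and 1 mM divaric acid spikes, then 2 days with 100 mM sodium citrate pH 5.5. Methanol extracts analysed by LC-MS; quadruplicate.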

Molecule	Mean CBCVA [µg/L]	Mean CBDVA [µg/L]	Mean THCVA [µg/L]
B1	2900.35	0.00	1459.81
B2	1897.16	0.00	1181.24
B3	2954.90	0.00	1628.92
B4	2985.03	0.00	1623.40
B5	3465.87	0.00	1548.62
B6	3281.34	0.00	1482.54
B7	2570.89	0.00	1344.71
B8	1829.32	0.00	981.31
B9	2023.09	0.00	1202.96
B10	1605.94	0.00	885.33
B11	3093.25	0.00	1662.32
B12	3290.24	0.00	1468.01

Same assay, conditions: share of terminal cannabinoid product profile, fed divaric acid

Molecule	% CBCVA [%]	% CBDVA [%]	% THCVA [%]
B1	66.52	0.00	33.48
B2	61.63	0.00	38.37
B3	64.46	0.00	35.54
B4	64.77	0.00	35.23
B5	69.12	0.00	30.88
B6	68.88	0.00	31.12
B7	65.66	0.00	34.34
B8	65.09	0.00	34.91
B9	62.71	0.00	37.29
B10	64.46	0.00	35.54
B11	65.04	0.00	34.96
B12	69.15	0.00	30.85
